Experimental data: patent publication US8202695 (TUFTS UNIVERSITY, dated 2012)

Biological target: the molecule itself
Experiment: X-ray crystals of CodY grown with GTP, with isoleucine and valine, or without effectors

B1: Bacillus subtilis CodY protein (other, UniProt P39779 2-259, looked up)
chain: ALLQKTRIINSMLQAAAGKPVNFKEMAETLRDVIDSNIFVVSRRGKLLGYSINQQIENDRMKKMLEDRQFPEEYTKNLFNVPETSSNLDINSEYTAFPVENRDLFQAGLTTIVPIIGGGERLGTLILSRLQDQFNDDDLILAEYGATVVGMEILREKAEEIEEEARSKAVVQMAISSLSYSELEAIEHIFEELDGNEGLLVASKIADRVGITRSVIVNALRKLESAGVIESRSLGMKGTYIKVLNNKFLIELENLKSH
notes: For crystallization, B. subtilis CodY was overproduced in E. coli with a C-terminal or an N-terminal 6xHis tag; also called purified CodY protein
Question: Does B1 bind?
Answer: binds
